In this experiment the target is T1, natriuretic peptide receptor-B (human).
T1 chain: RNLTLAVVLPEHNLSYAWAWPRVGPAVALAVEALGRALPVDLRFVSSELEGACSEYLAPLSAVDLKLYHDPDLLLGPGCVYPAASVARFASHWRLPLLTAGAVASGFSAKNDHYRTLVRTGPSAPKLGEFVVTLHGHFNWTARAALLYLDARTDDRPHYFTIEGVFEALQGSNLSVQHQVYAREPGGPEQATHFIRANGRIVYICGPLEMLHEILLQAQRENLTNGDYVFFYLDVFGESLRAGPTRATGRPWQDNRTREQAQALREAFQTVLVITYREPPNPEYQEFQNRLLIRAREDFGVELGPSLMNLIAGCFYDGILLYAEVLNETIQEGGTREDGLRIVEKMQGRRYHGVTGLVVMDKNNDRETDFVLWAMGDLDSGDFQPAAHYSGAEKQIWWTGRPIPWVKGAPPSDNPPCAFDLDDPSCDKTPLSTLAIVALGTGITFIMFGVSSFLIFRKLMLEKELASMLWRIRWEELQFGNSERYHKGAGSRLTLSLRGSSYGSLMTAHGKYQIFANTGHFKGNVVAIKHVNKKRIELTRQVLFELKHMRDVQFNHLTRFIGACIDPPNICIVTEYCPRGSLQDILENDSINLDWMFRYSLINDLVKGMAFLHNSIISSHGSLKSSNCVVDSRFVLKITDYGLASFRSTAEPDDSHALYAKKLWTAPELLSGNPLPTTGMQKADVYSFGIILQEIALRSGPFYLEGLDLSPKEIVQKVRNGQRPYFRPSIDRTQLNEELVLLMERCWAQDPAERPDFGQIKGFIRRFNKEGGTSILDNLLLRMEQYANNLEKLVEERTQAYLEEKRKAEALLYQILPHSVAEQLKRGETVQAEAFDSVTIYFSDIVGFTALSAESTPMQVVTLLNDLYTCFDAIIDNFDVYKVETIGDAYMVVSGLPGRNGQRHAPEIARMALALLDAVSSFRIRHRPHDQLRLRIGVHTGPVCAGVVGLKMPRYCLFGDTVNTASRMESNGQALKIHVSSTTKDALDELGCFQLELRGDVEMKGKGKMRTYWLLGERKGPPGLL
The experiment is described as follows: cell-based or functional assay.

Numbered stars: 1 amine (or outer) side, 2 acyl side, 3 side chain; on linkers, the order of the positions; unused ones are H or OH. Square brackets hold non-standard residues; d marks the D form. Ends that are not written are not given here. * marks the point of attachment. Pro(trans-4-NH2) = O=C([C@@H]1C[C@@H](N[*:3])CN1[*:1])[*:2]; Sni = (S)-nipecotic acid, O=C([C@H]1CCCN([*:1])C1)[*:2]; Egg = 2-Amino-3-piperidin-4-yl-propionic acid; Oic = O=C(O)[C@@H]1C[C@@H]2CCCC[C@@H]2N1; Fhy = Amino-piperidin-3-yl-acetic acid; Hyp = O=C(O)[C@@H]1C[C@@H](O)CN1; NMeL = CN[C@@H](CC(C)C)C(=O)O; AR‑201‑58 = not defined here; AR‑201‑59 = not defined here; AR‑201‑62 = not defined here; AR‑201‑69 = not defined here; Tle = CC(C)(C)[C@H](N)C(=O)O; Pip = O=C(O)[C@@H]1CCCCN1; Ac6c = NC1(C(=O)O)CCCCC1; Nle = CCCC[C@H](N)C(=O)O; Octanoyl = CCCCCCCC(=O)*; Orn = NCCC[C@H](N)C(=O)O; dDap = NC[C@@H](N)C(=O)O; Ac5c = NC1(C(=O)O)CCCC1; Api = NC1(C(=O)O)CCNCC1; Et2 = not defined here; Hexanoyl = CCCCCC(=O)*; Nbt = 4-butyl-thiazole; Oct = not defined here; Sbt = 5-butyl-thiazole; Occ = octanoic acid Some results are limits rather than exact numbers.

For the molecule [Nbt][Sni]F[dR]L[Hyp][NMeL]DRI-NH2 [JAL-1344], the “EC50 group, cGMP in GTM-3 cells” value is no more than 5 µM.

For the molecule [Sbt][dA]F[dR]L[Hyp][NMeL]DRI-NH2 [JAL-1345], the “EC50 group, cGMP in GTM-3 cells” value was no more than 15 µM.

Regarding Octanoyl-[dA]F[dR]L[Hyp][Oic]DRI-NH2 [JAL-1364], the “EC50 group, cGMP in GTM-3 cells” value was no more than 5 µM.

B1: JAL-1339 (peptide)
peptide: [AR‑201‑58]F[dR]L[Hyp][NMeL]DRI-NH2
modifications: reading uncertain; also: printed as (AR-201-58)-Phe-arg-Leu-Hyp-Nml-Asp-Arg-Ile-NH2
Take B1: the “EC50 group, cGMP in GTM-3 cells” value is no more than 15 µM.

Consider [Occ][Sni]F[Api]L[Pro(trans-4-NH2)][NMeL]DRI-NH2 [JAL-1351], for which the “EC50 group, cGMP in GTM-3 cells” value was no more than 1 µM.

On to Octanoyl-[dA]F[dR]L[Hyp][Pip]DRI-NH2 [JAL-1365], for which the “EC50 group, cGMP in GTM-3 cells” value was no more than 15 µM.

As for [Occ][dA]F[dL]L[Hyp][NMeL]TRI-NH2 [JAL-1334], the “EC50 group, cGMP in GTM-3 cells” value is no more than 5 µM.

As to [Occ][dA]F[dL]L[Hyp][NMeL]D[Orn]I-NH2 [JAL-1328], the “EC50 group, cGMP in GTM-3 cells” value is no more than 5 µM.

For Hexanoyl-G[dP]FGLKLDRI-NH2 [JAL-0636], the “EC50 group, cGMP in GTM-3 cells” value is no more than 15 µM.

B2: JAL-0648 (peptide)
peptide: XXFGLKLDRI
HELM: PEPTIDE1{[CCCCCC(=O)[*:2]].[O=C(c1ccc(CN[*:1])cc1)[*:2]].F.G.L.K.L.D.R.I.[am]}$$$$V2.0
SMILES: CCCCCC(=O)NCc1ccc(C(=O)N[C@@H](Cc2ccccc2)C(=O)NCC(=O)N[C@@H](CC(C)C)C(=O)N[C@@H](CCCCN)C(=O)N[C@@H](CC(C)C)C(=O)N[C@@H](CC(=O)O)C(=O)N[C@@H](CCCNC(=N)N)C(=O)N[C@H](C(N)=O)[C@@H](C)CC)cc1
On to B2, for which the “EC50 group, cGMP in GTM-3 cells” value was no more than 15 µM.

For Octanoyl-[dA]F[dL]L[Hyp][NMeL]D[Nle]I-NH2 [JAL-1360], the “EC50 group, cGMP in GTM-3 cells” value is no more than 15 µM.

In the case of Octanoyl-[dA]F[dL]L[Hyp][NMeL]DR[Tle]-NH2 [JAL-1352], the “EC50 group, cGMP in GTM-3 cells” value was no more than 1 µM.

In the case of [Occ][dA]F[dR]L[Hyp][NMeL]VRI-NH2 [JAL-1331], the “EC50 group, cGMP in GTM-3 cells” value is no more than 5 µM.

As for Nbt-[dA]F[dR]L[Hyp][NMeL]DRI-NH2 [JAL-1346], the “EC50 group, cGMP in GTM-3 cells” value was no more than 15 µM.

Consider [Occ][dA]F[dR]L[Hyp][NMeL]D[Orn]I-NH2 [JAL-1327], for which the “EC50 group, cGMP in GTM-3 cells” value is no more than 5 µM.

On to Hexanoyl-S[dP]FGLKLDRI-NH2 [JAL-0638], for which the “EC50 group, cGMP in GTM-3 cells” value was no more than 15 µM.

Consider Octanoyl-[dA]F[dR]L[Hyp][NMeL]DR[Ac6c]-NH2 [JAL-1359], for which the “EC50 group, cGMP in GTM-3 cells” value was no more than 5 µM.

On to [Occ][dA]F[Fhy]L[Hyp][NMeL]DRI-NH2 [JAL-1336], for which the “EC50 group, cGMP in GTM-3 cells” value is no more than 1 µM.

[Occ][dA]F[Egg]L[Hyp][NMeL]DRI-NH2 [JAL-1337]: the “EC50 group, cGMP in GTM-3 cells” value was no more than 5 µM.

On to [Oct][Sni]F[dL]L[Pro(trans-4-NH2)][NMeL]DRI-NH2 (reading uncertain; also: printed as Oct-Sni-Phe-leu-Leu-Tap-Nml-Asp-Arg-Ile-NH2) [JAL-1326], for which the “EC50 group, cGMP in GTM-3 cells” value was no more than 1 µM.

As to Octanoyl-[dA]F[dL]L[Hyp][NMeL]DR[Ac6c]-NH2 [JAL-1358], the “EC50 group, cGMP in GTM-3 cells” value was no more than 1 µM.

For [Occ][dA]F[Api]L[Hyp][NMeL]DRI-NH2 [JAL-1338], the “EC50 group, cGMP in GTM-3 cells” value was no more than 1 µM.

As to Octanoyl-[dA]F[dL]L[Hyp][NMeL]IRI-NH2 [JAL-1363], the “EC50 group, cGMP in GTM-3 cells” value was no more than 5 µM.

B3: JAL-1342 (peptide)
peptide: [AR‑201‑69]F[dR]L[Hyp][NMeL]DRI-NH2
modifications: reading uncertain; also: printed as (AR-201-69)-Phe-arg-Leu-Hyp-Nml-Asp-Arg-Ile-NH2
With B3, the “EC50 group, cGMP in GTM-3 cells” value is no more than 5 µM.

As for Octanoyl-[dA]F[dR]L[Hyp][NMeL]D[Nle]I-NH2 [JAL-1361], the “EC50 group, cGMP in GTM-3 cells” value is no more than 15 µM.

B4: JAL-1341 (peptide)
peptide: [AR‑201‑62]F[dR]L[Hyp][NMeL]DRI-NH2
modifications: reading uncertain; also: printed as (AR-201-62)-Phe-arg-Leu-Hyp-Nml-Asp-Arg-Ile-NH2
On to B4, for which the “EC50 group, cGMP in GTM-3 cells” value was no more than 5 µM.

Regarding Octanoyl-[Sni]F[dL]L[Pro(trans-4-NH2)](Et)[NMeL]DRI-NH2 [JAL-1349], the “EC50 group, cGMP in GTM-3 cells” value was no more than 1 µM.

As to [Occ][dA]F[dL]L[Hyp][NMeL]DR[Ac5c]-NH2 [JAL-1335], the “EC50 group, cGMP in GTM-3 cells” value is no more than 5 µM.

With Octanoyl-[dA]F[dR]L[Hyp][NMeL]IRI-NH2 [JAL-1362], the “EC50 group, cGMP in GTM-3 cells” value was no more than 15 µM.

B5: JAL-0647 (peptide)
peptide: XXFGLKLDRI
HELM: PEPTIDE1{[CCCCCC(=O)[*:2]].[O=C(c1cccc(CN[*:1])c1)[*:2]].F.G.L.K.L.D.R.I.[am]}$$$$V2.0
SMILES: CCCCCC(=O)NCc1cccc(C(=O)N[C@@H](Cc2ccccc2)C(=O)NCC(=O)N[C@@H](CC(C)C)C(=O)N[C@@H](CCCCN)C(=O)N[C@@H](CC(C)C)C(=O)N[C@@H](CC(=O)O)C(=O)N[C@@H](CCCNC(=N)N)C(=O)N[C@H](C(N)=O)[C@@H](C)CC)c1
On to B5, for which the “EC50 group, cGMP in GTM-3 cells” value is no more than 15 µM.

Take Octanoyl-[dA]F[dDap](Me2)L[Pro(trans-4-NH2)][NMeL]DRI-NH2 [JAL-1347]: the “EC50 group, cGMP in GTM-3 cells” value was no more than 5 µM.

B6: JAL-1340 (peptide)
peptide: [AR‑201‑59]F[dR]L[Hyp][NMeL]DRI-NH2
modifications: reading uncertain; also: printed as (AR-201-59)-Phe-arg-Leu-Hyp-Nml-Asp-Arg-Ile-NH2
In the case of B6, the “EC50 group, cGMP in GTM-3 cells” value is no more than 15 µM.

For the molecule Octanoyl-[dA]F[Api]L[Pro(trans-4-NH2)][NMeL]DRI-NH2 [JAL-1350], the “EC50 group, cGMP in GTM-3 cells” value is no more than 1 µM.

In the case of Octanoyl-[dA]F[dL]L[Hyp][Pip]DRI-NH2 [JAL-1366], the “EC50 group, cGMP in GTM-3 cells” value is no more than 5 µM.

B7: JAL-1348 (peptide)
peptide: Octanoyl-[Sni]F[dL]L[Pro(trans-4-NH2)](Et2)[NMeL]DRI-NH2
modifications: reading uncertain; also: printed as Occ-Sni-Phe-leu-Leu-Tap(Et2)-Nml-Asp-Arg-Ile-NH2
In the case of B7, the “EC50 group, cGMP in GTM-3 cells” value is no more than 5 µM.

As to [Sbt][Sni]F[dR]L[Hyp][NMeL]DRI-NH2 [JAL-1343], the “EC50 group, cGMP in GTM-3 cells” value was no more than 1 µM.

Turning to [Occ][dA]F[dR]L[Hyp][NMeL]TRI-NH2 [JAL-1333], the “EC50 group, cGMP in GTM-3 cells” value was no more than 5 µM.

Values taken from patent publication US9187525B2, “Methods of treating ophthalmic diseases using NPR-B agonists” (Shire Orphan Therapies GmbH, dated 2015).
